Reference: the supplement of paper PMC9233669
This sample holds only a part of the variants without activity.

Key:
biotinyl-Phe-oxazolone = assay: self-aminoacylation, catalytic enhancement (BFO) (fold over background); higher = more active; k-Seq, kA / k0A0; sequences stand for … in GGGAAUGGAUCCACAUCUACGAAUUC…UUCACUGCAGACUUGACGAAGCUG
Summary of the method: (§1)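 Mutagenized RNA pools (0.43 μM; 21-nt variable region) were treated with 2–1250 μM of each biotinyl-aminoacyl-oxazolone. Conditions were 50 μL HEPES/NaCl/KCl/MgCl2/CaCl2 buffer, 5% acetonitrile, pH 6.9–7.0, room temperature, 90 minutes. Catalytic enhancement, the median kA relative to the uncatalyzed rate, was derived from streptavidin capture, qPCR and Illumina sequencing.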

biotinyl-Ile-oxazolone = assay: self-aminoacylation, catalytic enhancement (BIO) (fold over background); higher = more active; k-Seq, kA / k0A0; sequences stand for … in GGGAAUGGAUCCACAUCUACGAAUUC…UUCACUGCAGACUUGACGAAGCUG
Summary of the method: as §1

biotinyl-Met-oxazolone = assay: self-aminoacylation, catalytic enhancement (BMO) (fold over background); higher = more active; k-Seq, kA / k0A0; sequences stand for … in GGGAAUGGAUCCACAUCUACGAAUUC…UUCACUGCAGACUUGACGAAGCUG
Summary of the method: as §1

biotinyl-Val-oxazolone = assay: self-aminoacylation, catalytic enhancement (BVO) (fold over background); higher = more active; k-Seq, kA / k0A0; sequences stand for … in GGGAAUGGAUCCACAUCUACGAAUUC…UUCACUGCAGACUUGACGAAGCUG
Summary of the method: as §1

biotinyl-Leu-oxazolone = assay: self-aminoacylation, catalytic enhancement (BLO) (fold over background); higher = more active; k-Seq, kA / k0A0; sequences stand for … in GGGAAUGGAUCCACAUCUACGAAUUC…UUCACUGCAGACUUGACGAAGCUG
Summary of the method: as §1

biotinyl-Trp-oxazolone = assay: self-aminoacylation, catalytic enhancement (BWO) (fold over background); higher = more active; k-Seq, kA / k0A0; sequences stand for … in GGGAAUGGAUCCACAUCUACGAAUUC…UUCACUGCAGACUUGACGAAGCUG
Summary of the method: as §1

AUUCACCUAGGUAAUCAGGUG [Fam2.2 aminoacylation ribozyme variant]
self-aminoacylation (biotinyl-Phe-oxazolone): 1.21 | self-aminoacylation (biotinyl-Ile-oxazolone): 0.967 | self-aminoacylation (biotinyl-Met-oxazolone): 1.25 | self-aminoacylation (biotinyl-Val-oxazolone): 0.989 | self-aminoacylation (biotinyl-Leu-oxazolone): 1.31 | self-aminoacylation (biotinyl-Trp-oxazolone): 0.933

AUUCACCUAGGUAAUCCGGUG [Fam2.2 aminoacylation ribozyme variant]
self-aminoacylation (biotinyl-Phe-oxazolone): 30.4 | self-aminoacylation (biotinyl-Ile-oxazolone): 2.33 | self-aminoacylation (biotinyl-Met-oxazolone): 3.77 | self-aminoacylation (biotinyl-Val-oxazolone): 2.39 | self-aminoacylation (biotinyl-Leu-oxazolone): 4.57 | self-aminoacylation (biotinyl-Trp-oxazolone): 4.8

AUUCACCUAGGUAAUCGGGUC [Fam2.2 aminoacylation ribozyme variant]
self-aminoacylation (biotinyl-Phe-oxazolone): 0.508 | self-aminoacylation (biotinyl-Ile-oxazolone): 0.866 | self-aminoacylation (biotinyl-Met-oxazolone): 0.606 | self-aminoacylation (biotinyl-Val-oxazolone): 0.689 | self-aminoacylation (biotinyl-Leu-oxazolone): 0.754 | self-aminoacylation (biotinyl-Trp-oxazolone): 0.691

AUUCACCUAGGUACUCGGGUG [Fam2.2 aminoacylation ribozyme variant]
self-aminoacylation (biotinyl-Phe-oxazolone): 29.8 | self-aminoacylation (biotinyl-Ile-oxazolone): 2.15 | self-aminoacylation (biotinyl-Met-oxazolone): 2.47 | self-aminoacylation (biotinyl-Val-oxazolone): 2.11 | self-aminoacylation (biotinyl-Leu-oxazolone): 3.3 | self-aminoacylation (biotinyl-Trp-oxazolone): 2.78

AUUCACCUAGGUCAACAGGUG [Fam2.2 aminoacylation ribozyme variant]
self-aminoacylation (biotinyl-Phe-oxazolone): 5.63 | self-aminoacylation (biotinyl-Ile-oxazolone): 1.64 | self-aminoacylation (biotinyl-Met-oxazolone): 2.2 | self-aminoacylation (biotinyl-Val-oxazolone): 1.56 | self-aminoacylation (biotinyl-Leu-oxazolone): 2.8 | self-aminoacylation (biotinyl-Trp-oxazolone): 1.87

AUUCACCUAGGUCACCCGGUG [Fam2.2 aminoacylation ribozyme variant]
self-aminoacylation (biotinyl-Phe-oxazolone): 37.3 | self-aminoacylation (biotinyl-Ile-oxazolone): 9.3 | self-aminoacylation (biotinyl-Met-oxazolone): 7.32 | self-aminoacylation (biotinyl-Val-oxazolone): 7.55 | self-aminoacylation (biotinyl-Leu-oxazolone): 9.93 | self-aminoacylation (biotinyl-Trp-oxazolone): 5.82

AUUCACCUAGGUCACCGAGUG [Fam2.2 aminoacylation ribozyme variant]
self-aminoacylation (biotinyl-Phe-oxazolone): 14.4 | self-aminoacylation (biotinyl-Ile-oxazolone): 2.11 | self-aminoacylation (biotinyl-Met-oxazolone): 3.57 | self-aminoacylation (biotinyl-Val-oxazolone): 1.99 | self-aminoacylation (biotinyl-Leu-oxazolone): 4.03 | self-aminoacylation (biotinyl-Trp-oxazolone): 3.47

AUUCACCUAGGUCACCGGGCG [Fam2.2 aminoacylation ribozyme variant]
self-aminoacylation (biotinyl-Phe-oxazolone): 11.3 | self-aminoacylation (biotinyl-Ile-oxazolone): 3.96 | self-aminoacylation (biotinyl-Met-oxazolone): 3.66 | self-aminoacylation (biotinyl-Val-oxazolone): 4.43 | self-aminoacylation (biotinyl-Leu-oxazolone): 4.7 | self-aminoacylation (biotinyl-Trp-oxazolone): 4.68

AUUCACCUAGGUCAGCGGGUG [Fam2.2 aminoacylation ribozyme variant]
self-aminoacylation (biotinyl-Phe-oxazolone): 29.1 | self-aminoacylation (biotinyl-Ile-oxazolone): 3.3 | self-aminoacylation (biotinyl-Met-oxazolone): 4.39 | self-aminoacylation (biotinyl-Val-oxazolone): 3.2 | self-aminoacylation (biotinyl-Leu-oxazolone): 5.95 | self-aminoacylation (biotinyl-Trp-oxazolone): 4.21

AUUCACCUAGGUCAUAAGGUG [Fam2.2 aminoacylation ribozyme variant]
self-aminoacylation (biotinyl-Phe-oxazolone): 6.42 | self-aminoacylation (biotinyl-Ile-oxazolone): 1.98 | self-aminoacylation (biotinyl-Met-oxazolone): 3.33 | self-aminoacylation (biotinyl-Val-oxazolone): 1.69 | self-aminoacylation (biotinyl-Leu-oxazolone): 3.48 | self-aminoacylation (biotinyl-Trp-oxazolone): 2.59

AUUCACCUAGGUCAUAGGGUA [Fam2.2 aminoacylation ribozyme variant]
self-aminoacylation (biotinyl-Phe-oxazolone): 0.412 | self-aminoacylation (biotinyl-Ile-oxazolone): 1.21 | self-aminoacylation (biotinyl-Met-oxazolone): 0.923 | self-aminoacylation (biotinyl-Val-oxazolone): 1.16 | self-aminoacylation (biotinyl-Leu-oxazolone): 0.856 | self-aminoacylation (biotinyl-Trp-oxazolone): 1.67

AUUCACCUAGGUCAUCAGAUG [Fam2.2 aminoacylation ribozyme variant]
self-aminoacylation (biotinyl-Phe-oxazolone): 0.715 | self-aminoacylation (biotinyl-Ile-oxazolone): 0.857 | self-aminoacylation (biotinyl-Met-oxazolone): 0.656 | self-aminoacylation (biotinyl-Val-oxazolone): 0.872 | self-aminoacylation (biotinyl-Leu-oxazolone): 0.928 | self-aminoacylation (biotinyl-Trp-oxazolone): 0.522

AUUCACCUAGGUCAUCCGGUA [Fam2.2 aminoacylation ribozyme variant]
self-aminoacylation (biotinyl-Phe-oxazolone): 6.52 | self-aminoacylation (biotinyl-Ile-oxazolone): 2.36 | self-aminoacylation (biotinyl-Met-oxazolone): 2.17 | self-aminoacylation (biotinyl-Val-oxazolone): 2.3 | self-aminoacylation (biotinyl-Leu-oxazolone): 2.3 | self-aminoacylation (biotinyl-Trp-oxazolone): 1.87

AUUCACCUAGGUCAUCGCGUU [Fam2.2 aminoacylation ribozyme variant]
self-aminoacylation (biotinyl-Phe-oxazolone): 12.7 | self-aminoacylation (biotinyl-Ile-oxazolone): 2.48 | self-aminoacylation (biotinyl-Met-oxazolone): 2.62 | self-aminoacylation (biotinyl-Val-oxazolone): 2.39 | self-aminoacylation (biotinyl-Leu-oxazolone): 3 | self-aminoacylation (biotinyl-Trp-oxazolone): 3.66

AUUCACCUAGGUCAUCGCUUG [Fam2.2 aminoacylation ribozyme variant]
self-aminoacylation (biotinyl-Phe-oxazolone): 4.33 | self-aminoacylation (biotinyl-Ile-oxazolone): 1.18 | self-aminoacylation (biotinyl-Met-oxazolone): 1.32 | self-aminoacylation (biotinyl-Val-oxazolone): 1.12 | self-aminoacylation (biotinyl-Leu-oxazolone): 1.26 | self-aminoacylation (biotinyl-Trp-oxazolone): 0.795

AUUCACCUAGGUCAUCGGGCC [Fam2.2 aminoacylation ribozyme variant]
self-aminoacylation (biotinyl-Phe-oxazolone): 14.7 | self-aminoacylation (biotinyl-Ile-oxazolone): 2.73 | self-aminoacylation (biotinyl-Met-oxazolone): 3.51 | self-aminoacylation (biotinyl-Val-oxazolone): 2.97 | self-aminoacylation (biotinyl-Leu-oxazolone): 4.1 | self-aminoacylation (biotinyl-Trp-oxazolone): 4.4

AUUCACCUAGGUCAUCGGGGC [Fam2.2 aminoacylation ribozyme variant]
self-aminoacylation (biotinyl-Phe-oxazolone): 20.7 | self-aminoacylation (biotinyl-Ile-oxazolone): 4.85 | self-aminoacylation (biotinyl-Met-oxazolone): 7.18 | self-aminoacylation (biotinyl-Val-oxazolone): 4.81 | self-aminoacylation (biotinyl-Leu-oxazolone): 11.5 | self-aminoacylation (biotinyl-Trp-oxazolone): 5.91

AUUCACCUAGGUCAUCGGUAG [Fam2.2 aminoacylation ribozyme variant]
self-aminoacylation (biotinyl-Phe-oxazolone): 0.533 | self-aminoacylation (biotinyl-Ile-oxazolone): 0.626 | self-aminoacylation (biotinyl-Met-oxazolone): 0.838 | self-aminoacylation (biotinyl-Val-oxazolone): 0.836 | self-aminoacylation (biotinyl-Leu-oxazolone): 0.606 | self-aminoacylation (biotinyl-Trp-oxazolone): 0.372

AUUCACCUAGGUCAUCGGUUG [Fam2.2 aminoacylation ribozyme variant]
self-aminoacylation (biotinyl-Phe-oxazolone): 1.02 | self-aminoacylation (biotinyl-Ile-oxazolone): 1 | self-aminoacylation (biotinyl-Met-oxazolone): 1.01 | self-aminoacylation (biotinyl-Val-oxazolone): 1.03 | self-aminoacylation (biotinyl-Leu-oxazolone): 1.11 | self-aminoacylation (biotinyl-Trp-oxazolone): 0.932

AUUCACCUAGGUCAUCUAGUG [Fam2.2 aminoacylation ribozyme variant]
self-aminoacylation (biotinyl-Phe-oxazolone): 18.7 | self-aminoacylation (biotinyl-Ile-oxazolone): 2.92 | self-aminoacylation (biotinyl-Met-oxazolone): 4.77 | self-aminoacylation (biotinyl-Val-oxazolone): 2.78 | self-aminoacylation (biotinyl-Leu-oxazolone): 5.99 | self-aminoacylation (biotinyl-Trp-oxazolone): 4.12

AUUCACCUAGGUCAUGGAGUG [Fam2.2 aminoacylation ribozyme variant]
self-aminoacylation (biotinyl-Phe-oxazolone): 7.91 | self-aminoacylation (biotinyl-Ile-oxazolone): 2.31 | self-aminoacylation (biotinyl-Met-oxazolone): 3.29 | self-aminoacylation (biotinyl-Val-oxazolone): 2.49 | self-aminoacylation (biotinyl-Leu-oxazolone): 4.09 | self-aminoacylation (biotinyl-Trp-oxazolone): 3.68

AUUCACCUAGGUCAUGGGAUG [Fam2.2 aminoacylation ribozyme variant]
self-aminoacylation (biotinyl-Phe-oxazolone): 0.397 | self-aminoacylation (biotinyl-Ile-oxazolone): 0.596 | self-aminoacylation (biotinyl-Met-oxazolone): 0.66 | self-aminoacylation (biotinyl-Val-oxazolone): 0.657 | self-aminoacylation (biotinyl-Leu-oxazolone): 0.611 | self-aminoacylation (biotinyl-Trp-oxazolone): 0.315

AUUCACCUAGGUCAUGGUGUG [Fam2.2 aminoacylation ribozyme variant]
self-aminoacylation (biotinyl-Phe-oxazolone): 0.397 | self-aminoacylation (biotinyl-Ile-oxazolone): 0.936 | self-aminoacylation (biotinyl-Met-oxazolone): 0.846 | self-aminoacylation (biotinyl-Val-oxazolone): 0.932 | self-aminoacylation (biotinyl-Leu-oxazolone): 0.994 | self-aminoacylation (biotinyl-Trp-oxazolone): 0.519
